What was measured:
purified protein = substrate: S=C=NCCc1ccccc1; test: purified protein; assay type: biochemical, Synechocystis sp. PCC 6803; design: Vmax: unit not given here; settings: co-substrate 1 mM GSH, 50 mM potassium phosphate pH 6.5, 150 mM NaCl, 30 °C
[1] = biological target: the molecule itself; test: SEC; Superdex 200 10/300 GL, 20 mM phosphate buffer pH 8.0, 150 mM NaCl, 2 mM GSH, 0.5 mL/min, 25°C; calibrated with molecular weight standards

B1: Glutathione S-transferase sll0067 from Synechocystis PCC 6803 (enzyme, UniProt Q55139 1-184, looked up)
chain: MIKLYGAPQSRASIIQWYLEELSLPYEFVNVNLKEGEHRQAPYLAINPFGKVPAIADGNFHLWESGAILLYLAEKASTIPADAQARALVNQWILFANSTLANGLFIEAVREKEMPRLLQSLEKILGRSPFILGEKFSVVDVAVGSILAYVPIMLKLNFDDYPAVAAYVQGLVQRPAFQASIGAR
notes: gene of 0.55 kb amplified from genomic DNA with primers from the ATG to the stop codon; subunit of about 20 kDa; Cloned at BamHI and HindIII sites of pQE30 and purified on Ni-NTA; also called GST sll0067; recombinant sll0067; source: E. coli M15, purified (Ni-NTA agarose)
**Q.** With B1 as the protein, how does the Km (purified protein) read?
**A.** Its Km is 319.3 ± 33 µM.

**Q.** What about the Vmax (purified protein) of the same protein?
**A.** Its Vmax is 21.8.

**Q.** What about the kcat (purified protein) of the same protein?
**A.** Its kcat is 15.2 ± 0.58 s⁻¹.

**Q.** And the kcat/Km (purified protein)?
**A.** The kcat/Km was 47500 ± 620 M⁻¹ s⁻¹.

**Q.** And the “stoichiometry N” value [1]?
**A.** The value was 2.

From publication PMC4429112, “Characterization of a Highly pH Stable Chi-Class Glutathione S-Transferase from Synechocystis PCC 6803” (PLoS ONE, 2015)
